Patent US20220177587A1, “METHODS AND USES OF VARIANT CD80 FUSION PROTEINS AND RELATED CONSTRUCTS” (Alpine Immune Sciences, Inc., priority 2018, published 2022)
Where a chain is given by its changes, count along the chain named. In names and notes the source's numbering stands. One block for each molecule: values may come before it.

What was measured:
huPD-L1 = huPD-L1 (Homo sapiens, UniProt Q9NZQ7); experiment: Flow binding to CHO cells stably expressing PD-L1; parameters: huCTLA4 and huPD-L1, full-length mammalian surface expression constructs were generated; expressed in transfected cells; host or cells: CHO cells, lentiviral transduction, sorted to >98% purity; settings: CHO cells stably expressing PD-L1
huPD-L1, sequence (Q9NZQ7 19-290): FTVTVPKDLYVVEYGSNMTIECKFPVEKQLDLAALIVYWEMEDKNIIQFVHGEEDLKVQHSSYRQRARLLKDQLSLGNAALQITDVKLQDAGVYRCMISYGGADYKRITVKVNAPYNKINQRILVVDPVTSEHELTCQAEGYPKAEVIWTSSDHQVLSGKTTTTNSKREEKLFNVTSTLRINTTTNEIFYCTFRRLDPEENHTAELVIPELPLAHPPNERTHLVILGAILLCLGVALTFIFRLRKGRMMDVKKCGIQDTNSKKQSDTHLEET
Protocol: (§1) Binding of selected immunomodulatory fusion proteins to cognate binding partners was assessed. […] Cells were sorted in a Bio-Rad S3 Cell Sorter (Bio-Rad Corp., USA) to >98% purity. Jurkat/IL2 reporter cells, which endogenously express CD28, were used to detect binding to CD28.
(§2) For staining and analysis by flow cytometry, 100,000 cells of appropriate transfected cells were plated in 96-well round bottom plates. Cells were spun down and resuspended in staining buffer (phosphate buffered saline (PBS), 1% bovine serum albumin (BSA), and 0.1% sodium azide) for 20 minutes to block non-specific binding. […] Primary staining was performed on ice for 45 minutes, before washing cells in staining buffer twice. Phycoerythrin (PE)-conjugated anti-human Fc (Jackson ImmunoResearch, USA) was diluted 1:150, added to cells and incubated another 30 minutes on ice. Cells were then washed twice with 150 μL/well stain buffer, fixed in 2% formaldehyde/PBS, and analyzed on Intellicyt flow cytometer (Intellicyt Corp., USA). PE Mean Fluorescence Intensity (MFI) was calculated for each cell type with FlowJo Version 10 software (FlowJo LLC, USA).
(§3) Binding assays were carried out to assess the specificity and affinity of multivalent proteins to cell-expressed CTLA-4, CD28, and PD-L1 counter structures.
(§4) The EC50 for binding also was determined.

CD28 = CD28 (Homo sapiens, UniProt P10747); experiment: Jurkat/IL2 + CHO/OKT3 +/- PD-L1 reporter assay: PD-L1-dependent CD28 costimulation; assay type: cell-based; parameters: host or cells: Jurkat cells expressing an IL-2-luciferase reporter; settings: Jurkat/IL2 + CHO/OKT3/PD-L1
Protocol: Jurkat cells were then plated at 50 μL/well for a total of 100,000 cells per well.
To each well, 25 μL of test protein was added to the Jurkat cells. […] The Jurkat cells with test or control proteins were incubated for 15 minutes at room temperature. CHO-derived artificial antigen presenting cells (aAPC) displaying transduced cell surface anti-CD3 single chain Fv (OKT3) (i.e., no PD-L1), or OKT3 and PD-L1 (i.e., +PD-L1), were brought to 0.8×10^6 cells/mL, and 25 μL of cells were added to each well, bringing the final volume of each well to 100 μL. […] Jurkat cells and CHO cells were incubated for 5 hours at 37 degrees Celsius in a humidified 5% CO2 incubation chamber. Plates were then removed from the incubator and acclimated to room temperature for 15 minutes. 100 μL of a cell lysis and luciferase substrate solution (BioGlo luciferase reagent, Promega) were added to each well and the plates were incubated on an orbital shaker for 10 minutes. Luminescence was measured with a 1 second per well integration time using a BioTek Cytation luminometer, and a relative luminescence value (RLU) was determined for each test sample.

huCTLA4 = huCTLA4 (Homo sapiens, UniProt P16410); experiment: Flow binding to CHO cells stably expressing CTLA4; parameters: huCTLA4 and huPD-L1, full-length mammalian surface expression constructs were generated; expressed in transfected cells; host or cells: CHO cells, lentiviral transduction, sorted to >98% purity; settings: CHO cells stably expressing CTLA4
huCTLA4, sequence (P16410 36-223): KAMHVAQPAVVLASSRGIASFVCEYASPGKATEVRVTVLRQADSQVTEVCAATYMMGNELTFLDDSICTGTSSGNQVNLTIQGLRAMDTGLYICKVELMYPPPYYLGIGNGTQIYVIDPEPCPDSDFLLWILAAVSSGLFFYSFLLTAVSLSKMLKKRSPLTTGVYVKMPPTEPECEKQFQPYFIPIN
Protocol: as §1, §2, §3, §4

Fold Increase over WT CD80-IgV-Fe (CD28; Table E13, 5.0 nM): 3.0
Relative Luciferase Units (RLU), CD80 Cone 5.0 nM (CD28; Table E13, 5.0 nM): 1203 RLU
B3: E35D/M47V/N48K/V68M/L85M (protein, UniProt P33681 35-288, looked up, variant E35D M47V N48K V68M L85M)
T-lymphocyte activation …: VIHVTKEVKEVATLSCGHNVSVEELAQTRIYWQKDKKMVLTMMSGDVKIWPEYKNRTIFDITNNLSIMILALRPSDEGTYECVVMKYEKDAFKREHLAEVTLSVKADFPTPSISDFEIPTSNIRRIICSTSGGFPEPHLSWLENGEELNAINTTVSQDPETELYAVSSKLDFNMTTNHSFMCLIKYGHLRVNQTFNWNTTKQEHFPDNLLPSWAITLISVNGIFVICCLTYCFAPRCRERRRNERLRRESVRPV

Fold Increase over WT CD80-IgV-Fe (CD28; Table E13, 5.0 nM): 2.6
Relative Luciferase Units (RLU), CD80 Cone 5.0 nM (CD28; Table E13, 5.0 nM): 1021 RLU
B4: T13R/E35D/M47L/V68M (protein, UniProt P33681 35-288, looked up, variant T13R E35D M47L V68M)
T-lymphocyte activation …: B3 T-lymphocyte activation … with T13R, V47L, K48N, M85L

PD-L1 MFI at 33.3 nM (huPD-L1; Table E23, CD80 IgV-Fc (inert) at 33.3 nM): 68165
Relative Luciferase Units (RLU), CD80 Conc 5.0 nM (CD28; Table E24, 5.0 nM): 985 RLU
B6: H18V/A26N/E35D/M47V/V68M/A71G (protein, UniProt P33681 35-288, looked up, variant H18V A26N E35D M47V V68M A71G)
T-lymphocyte activation …: B3 T-lymphocyte activation … with H18V, A26N, K48N, A71G, M85L

Fold Increase over WT CD80-IgV-Fe (CD28; Table E24, 5.0 nM): 5.4
Relative Luciferase Units (RLU), CD80 Conc 5.0 nM (CD28; Table E24, 5.0 nM): 916 RLU
B13: H181/A26P/E35D/M47V/V68M/A71G (protein)
chain: VIHVTKEVKEVATLSCGINVSVEELPQTRIYWQKDKKMVLTMMSGDVNIWPEYKNRTIFDITNNLSIMILGLRPSDEGTYECVVLKYEKDAFKREHLAEVTLSVKAD

CTLA4 MFI at 33.3 nM (huCTLA4; Table E19, 33.3 nM): 19129
PD-L1 MFI at 33.3 nM (huPD-L1; Table E19, 33.3 nM): 11464
B18: N48K/V68M/K89N (protein)
chain: B13 chain with I18H, P26A, D35E, V47M, N48K, G71A, K89N

PD-L1 MFI at 33.3 nM (huPD-L1; Table E20, 33.3 nM): 28478
B19: H18Y/M47L/V68M/A71G (protein)
chain: B13 chain with I18Y, P26A, D35E, V47L

Fold Increase over WT CD80-IgV-Fe (CD28; Table E13, 5.0 nM): 0.4
Relative Luciferase Units (RLU), CD80 Cone 5.0 nM (CD28; Table E13, 5.0 nM): 170 RLU
B20: T13R/Q27L/Q33L/E35D/T41S/M47V/N48KN68M/L85M (protein)
chain: B13 chain with T13R, I18H, P26A, Q27L, Q33L, T41S, N48K, G71A, L85M

Continued, molecule first:

B1: V22D/E24D/E35D/M47L/V68M/L85M/D90G (protein)
chain: VIHVTKEVKEVATLSCGHNVSDEDLAQTRIYWQKDKKMVLTMMSGDLNIWPEYKNRTIFDITNNLSIMILALRPSDEGTYECVVMKYEKGAFKREHLAEVTLSVKADFPTPSISDFETPTSNIRRIICSTSGGFPEPHLSWLENGEELNAINTTVSQDPETELYAVSSKLDFNMTTNHSFMCLIKYGHLRVNQTFNWNTTKQEHFPDN
modifications: CD80 v384 ECD
PD-L1 MFI at 33.3 nM (huPD-L1; Table E11, 33.3 nM): 19047
Relative Luciferase Units (RLU), CD80 Cone 5.0 nM (CD28; Table E13, 5.0 nM): 963 RLU

B2: H18Y/E35D/V68M/A71G/R94Q/E95V (protein, UniProt P33681 35-288, looked up, variant H18Y E35D V68M A71G R94Q E95V)
T-lymphocyte activation …: B3 T-lymphocyte activation … with H18Y, V47M, K48N, A71G, M85L, R94Q, E95V
modifications: Fc fusion
CTLA4 MFI at 33.3 nM (huCTLA4; Table E11, 33.3 nM): 18281
CTLA4 MFI at 33.3 nM (huCTLA4; Table E16, consensus variants, 33.3 nM): 19396
Relative Luciferase Units (RLU), CD80 Cone 5.0 nM (CD28; Table E13, 5.0 nM): 183 RLU
Relative Luciferase Units (RLU), CD80 Cone 5.0 nM (CD28; Table E17, consensus variants, 5.0 nM): 1968 RLU

B5: E35D/D46E/M47L/V68M/A71G/Y87C/K93R (protein, UniProt P33681 35-288, looked up, variant E35D D46E M47L V68M A71G Y87C K93R)
T-lymphocyte activation …: B3 T-lymphocyte activation … with D46E, V47L, K48N, A71G, M85L, Y87C, K93R
Relative Luciferase Units (RLU), CD80 Cone 5.0 nM (CD28; Table E13, 5.0 nM): 1198 RLU

B7: E35D/M38I/M43V/M47V/N48R/L85Q (protein)
chain: B13 chain with I18H, P26A, M38T, M43V, N48R, M68V, G71A, L85Q
CTLA4 MFI at 33.3 nM (huCTLA4; Table E4, 33.3 nM variant CD80 IgV-Fc): 203938

B8: H18Y/E35D/M47V/N48K (protein)
chain: B13 chain with I18Y, P26A, N48K, M68V, G71A
PD-L1 MFI at 33.3 nM (huPD-L1; Table E10, 33.3 nM): 6462
Relative Luciferase Units (RLU), CD80 Cone 5.0 nM (CD28; Table E12, 5.0 nM): 2146 RLU

B9: H18Y/E35D/M47L/A71G (protein)
chain: B13 chain with I18Y, P26A, V47L, M68V
Relative Luciferase Units (RLU), CD80 Conc 5.0 nM (CD28; Table E22, CD80 Conc 5.0 nM): 1387 RLU

B10: H18Y/A26P/E35D/M47T/V68M/A71G (protein)
chain: B13 chain with I18Y, V47I
Fold Increase over WT CD80-IgV-Fe (CD28; Table E24, 5.0 nM): 4.5
Relative Luciferase Units (RLU), CD80 Conc 5.0 nM (CD28; Table E24, 5.0 nM): 761 RLU

B11: E35D/D46V (protein)
chain: B13 chain with I18H, P26A, D46V, V47M, M68V, G71A
PD-L1 MFI at 33.3 nM (huPD-L1; Table E19, 33.3 nM): 3971

B12: E35D/M47V/V68M (protein)
chain: B13 chain with I18H, P26A, G71A
Relative Luciferase Units (RLU), CD80 Conc 5.0 nM (CD28; Table E21, CD80 Conc 5.0 nM): 841 RLU

B14: E35D/M43I/M47L/L85M (protein)
chain: B13 chain with I18H, P26A, M43I, V47L, M68V, G71A, L85M
CTLA4 MFI at 33.3 nM (huCTLA4; Table E10, 33.3 nM): 24584
Relative Luciferase Units (RLU), CD80 Cone 5.0 nM (CD28; Table E12, 5.0 nM): 1427 RLU

B15: D46V/M47L (protein)
chain: B13 chain with I18H, P26A, D35E, D46V, V47L, M68V, G71A
CTLA4 MFI at 33.3 nM (huCTLA4; Table E19, 33.3 nM): 49711

B16: E35D/M47L/A71G (protein)
chain: B13 chain with I18H, P26A, V47L, M68V
CTLA4 MFI at 33.3 nM (huCTLA4; Table E10, 33.3 nM): 20576
Relative Luciferase Units (RLU), CD80 Cone 5.0 nM (CD28; Table E12, 5.0 nM): 1954 RLU

B17: M47V/N48K/V68M/K89N (protein)
chain: B13 chain with I18H, P26A, D35E, N48K, G71A, K89N
PD-L1 MFI at 33.3 nM (huPD-L1; Table E19, 33.3 nM): 23666
Relative Luciferase Units (RLU), CD80 Conc 5.0 nM (CD28; Table E21, CD80 Conc 5.0 nM): 671 RLU

B21: D46V/M47L/V68M/L85Q (protein)
chain: B13 chain with I18H, P26A, D35E, D46V, V47L, G71A, L85Q
Relative Luciferase Units (RLU), CD80 Conc 5.0 nM (CD28; Table E21, CD80 Conc 5.0 nM): 654 RLU
